Measured values from patent US20230416396A1 (Regeneron, published 2023).
Like-named read-outs stand apart in the source and are kept apart here.

Key:
human 4-1BB on cells [1] = target: T1, human 4-1BB on cells (human, UniProt Q07011 24-255); assay: cell-based or functional assay
human 4-1BB on cells [2] = target: T1, human 4-1BB on cells; assay: cell-based or functional assay; remark: listed apart in the source
human 4-1BB on cells [3] = target: T1, human 4-1BB on cells; assay: cell-based or functional assay; remark: listed apart in the source
human 4-1BB on cells [4] = target: T1, human 4-1BB on cells; assay: flow cytometry on HEK293/h4-1BB cells, APC anti-human secondary
Description: (§1) The ability of the multispecific antigen binding molecules to bind cells was assessed using flow cytometry. Cell lines were chosen to determine the ability of both the anti-CD38 and anti-4-1BB arms to bind their targets. […] Binding was detected by using a labeled secondary antibody and measuring fluorescence on a flow cytometer.
HEK293 and HEK293/4-1BB cells were lifted with trypsin, washed and resuspended in stain buffer (2% FBS in PBS) and added to wells of a 96 well V-bottom plate (3×10⁵ cells/well). A 1:5, 9-point, dose titration of test antibodies was diluted in stain buffer and added to cells to a final concentration ranging from 1.3 pM to 100 nM (a “no antibody” control was included as the ninth point ([…]) labeled as “secondary only”). Cells and antibodies were incubated for 30 min on ice and then washed in stain buffer. Cells were resuspended in 2 ug/ml allophycocyanin (APC) conjugated goat-anti human secondary antibody and incubated for 30 min on ice. Cells were then washed and resuspended in viability dye (according to the manufacturer's protocol) and incubated for 30 min on ice. Cells were then washed with stain buffer and resuspended in 2% PFA for 30 min on ice. After washing, cells were filtered and analyzed by flow cytometry to determine the geometric mean fluorescence intensity (gMFI), which was subsequently plotted using GraphPad Prism software. EC₅₀ values of the antibodies were determined from a 4-parameter logistic equation over a 9-point dose response curve (including secondary only control).

[5] = target: T2, human CD38 endogenously expressed on MOLP8 cells (human, UniProt P28907 1-300); assay: flow cytometry on MOLP8 cells (endogenous hCD38), APC anti-human secondary
T2 construct: whole, on cells; also called hCD38
Description: as §1
HEK293 cells were lifted with trypsin, washed and resuspend in stain buffer (2% FBS in PBS). MOLP8 cells were washed and resuspended in stain buffer. Cells were added to wells of a 96 well V-bottom plate (3×10⁵ cells/well). A 1:4, 9-point, dose titration of test antibodies was diluted in stain buffer and added to cells to a final concentration ranging from 610 fM to 10 nM (a “no antibody” control was included as the ninth point (153fM), labeled as “secondary only”). Cells and antibodies were incubated for 30 min on ice and then washed in stain buffer. Cells were resuspended in 2 ug/ml allophycocyanin (APC) conjugated goat-anti human secondary antibody and incubated for 30 min on ice. Cells were then washed and resuspended in viability dye (according to the manufacturer's protocol) and incubated for 30 min on ice. Cells were then washed with stain buffer and resuspended in 2% PFA for 30 min on ice. After washing, cells were filtered and analyzed by flow cytometry to determine the geometric mean fluorescence intensity (gMFI), which was subsequently plotted using GraphPad Prism software. EC₅₀ values of the antibodies were determined from a 4-parameter logistic equation over a 9-point dose response curve (including secondary only control, representing the ninth point).

T1 sequence (Q07011 24-255): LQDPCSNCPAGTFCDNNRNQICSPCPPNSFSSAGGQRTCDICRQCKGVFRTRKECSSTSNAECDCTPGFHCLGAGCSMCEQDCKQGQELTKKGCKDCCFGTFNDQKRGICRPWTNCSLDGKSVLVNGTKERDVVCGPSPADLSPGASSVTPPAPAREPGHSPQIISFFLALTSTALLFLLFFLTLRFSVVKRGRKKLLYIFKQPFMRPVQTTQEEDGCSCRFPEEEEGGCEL

EC50 of IL-2 release, T cells + HEK293/CD20/CD38 + REGN1979 (human 4-1BB on cells [1]): ~0.1 nM
EC50 of IL-2 release, T cells + MOLP-8 + REGN5458 (human 4-1BB on cells [1]): 63.4 nM
MAX IL-2 release, T cells + HEK293/CD20 + REGN1979 (human 4-1BB on cells [1]): 182 pg/mL
MAX IL-2 release, T cells + HEK293/CD20/CD38 + IsoC (human 4-1BB on cells [1]): 12 pg/mL
MAX IL-2 release, T cells + HEK293/CD20/CD38 + REGN1979 (human 4-1BB on cells [1]): 1300 pg/mL
MAX IL-2 release, T cells + MOLP-8 + IsoC (human 4-1BB on cells [1]): 163 pg/mL
MAX IL-2 release, T cells + MOLP-8 + REGN5458 (human 4-1BB on cells [1]): 308 pg/mL
EC50 of IL-2 release, T cells + NALM-6 (human 4-1BB on cells [2]): 0.108 nM
MAX IL-2 release, T cells + HEK293/CD20 + REGN2281 (human 4-1BB on cells [2]): 63 pg/mL
MAX IL-2 release, T cells + HEK293/CD20/CD38 + REGN2281 (human 4-1BB on cells [2]): 593 pg/mL
MAX IL-2 release, T cells + MOLP-8 + IsoC (human 4-1BB on cells [2]): 48 pg/mL
MAX IL-2 release, T cells + MOLP-8 + REGN5458 (human 4-1BB on cells [2]): 32 pg/mL
MAX IL-2 release, T cells + NALM-6 (human 4-1BB on cells [2]): 122 pg/mL
EC50 of IFNγ release, T cells + HEK293/CD20/CD38 + REGN2281 (human 4-1BB on cells [3]): 0.78 nM
EC50 of IFNγ release, T cells + MOLP-8 + REGN5458 (human 4-1BB on cells [3]): 43.8 nM
MAX IFNγ release, T cells + HEK293/CD20 + REGN2281 (human 4-1BB on cells [3]): 1840 pg/mL
MAX IFNγ release, T cells + HEK293/CD20/CD38 + REGN2281 (human 4-1BB on cells [3]): 3950 pg/mL
MAX IFNγ release, T cells + MOLP-8 + IsoC (human 4-1BB on cells [3]): 56 pg/mL
MAX IFNγ release, T cells + MOLP-8 + REGN5458 (human 4-1BB on cells [3]): 1300 pg/mL
MAX IFNγ release, T cells + NALM-6 (human 4-1BB on cells [3]): 620 pg/mL
EC50 (human 4-1BB on cells [4]): 2.86 nM
MAX gMFI (human 4-1BB on cells [4]): 2.4e+06 gMFI
MAX gMFI [5]: 210000 gMFI
B1: REGN7150 (bispecific antibody, human IgG4 S228P, kappa)
heavy 1: QVQLVQSGAEVKKPGSSVKVSCKASGGPFRSSSFSWVRQAPGQGLEWMGGIIPILGKTNYAQKFQGRITIVTDESTTTVYMELSSLRSEDTAVFYCVRGSSLFDYWGQGTLVTVSSASTKGPSVFPLAPCSRSTSESTAALGCLVKDYFPEPVTVSWNSGALTSGVHTFPAVLQSSGLYSLSSVVTVPSSSLGTKTYTCNVDHKPSNTKVDKRVESKYGPPCPPCPAPPVAGPSVFLFPPKPKDTLMISRTPEVTCVVVDVSQEDPEVQFNWYVDGVEVHNAKTKPREEQFNSTYRVVSVLTVLHQDWLNGKEYKCKVSNKGLPSSIEKTISKAKGQPREPQVYTLPPSQEEMTKNQVSLTCLVKGFYPSDIAVEWESNGQPENNYKTTPPVLDSDGSFFLYSRLTVDKSRWQEGNVFSCSVMHEALHNHYTQKSLSLSLGK
heavy 2: QVQLVQSGAEVKKPGASVKVSCKASAYTFTSYGFSWVRQAPGQGLEWMGWISTSNGYTNYAQKIQDRVTMTTDTSTSTAYMELRSLRSDDTAVYYCASLSNWVSFFDYWGQGTLVTVSSASTKGPSVFPLAPCSRSTSESTAALGCLVKDYFPEPVTVSWNSGALTSGVHTFPAVLQSSGLYSLSSVVTVPSSSLGTKTYTCNVDHKPSNTKVDKRVESKYGPPCPPCPAPPVAGPSVFLFPPKPKDTLMISRTPEVTCVVVDVSQEDPEVQFNWYVDGVEVHNAKTKPREEQFNSTYRVVSVLTVLHQDWLNGKEYKCKVSNKGLPSSIEKTISKAKGQPREPQVYTLPPSQEEMTKNQVSLTCLVKGFYPSDIAVEWESNGQPENNYKTTPPVLDSDGSFFLYSRLTVDKSRWQEGNVFSCSVMHEALHNRFTQKSLSLSPGK
light: not shown
notes: 1+1 format control, hIgG4P-PVA, common 3-20 light chain; also called CD38x4-1BB (1 + 1); 26871P2 x 25921P
